Here are results for 36 molecules from patent US20230279105A1 (SINGLE CELL TECHNOLOGY, published 2023).

The target of this assay is T1, Human TIM-3 Human Fc tagged protein (human, fluorescently labeled with HiLyte Fluor 555 (sites not given)).
T1 construct: Bought construct; also called TIM-3 protein tagged with human Fc; ACROBiosystems catalog no: TM3-H5258
Kind of assay: capture slide probed with labeled TIM-3-Fc.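 Further: IgG from single CD138-enriched plasma cells, isolated from lymphocytes, immobilized on a derivatized glass slide.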

Changes are numbered by the printed parent chain.

B1: SCT-Fa082 (antibody, V domains shown)
VH: QGQLQQPGAEVVKPGAAVKLSCKASGYTFTSYWMQWIKQRPGQGLEWIGEIDPSDNYTDYNQNFKGKATLTVDTSSSTAYLQLSSLTSEDSAVYYCAREGAFSSPFAYWGPGTLVTVSS
VL: DILMTQSPSSMSVSLGDTVSIICHASQDIRSNIGWLQQKPGKSFKGLIYHGTNLEDGVPSRFSGSGSGADYSLTISSLESEDFADYYCVQYVQFPRTFGGGTKLEIK
notes: murine IgG
Take B1: the binding result was “binds”.

B2: SCT-Fa078 (antibody, V domains shown)
VH: B1 VH with E46D, S77N
VL: B1 VL
notes: murine IgG
For the molecule B2, the binding result was “binds”.

B3: SCT-Fa080 (antibody, V domains shown)
VH: B1 VH with N63H
VL: B1 VL
notes: murine IgG
Regarding B3, the binding result was “binds”.

B4: SCT-Fa081 (antibody, V domains shown)
VH: B1 VH with R98K
VL: B1 VL
notes: murine IgG
As for B4, the binding result is “binds”.

B5: SCT-Fa148 (antibody, V domains shown)
VH: B1 VH with G2V, A17S, I37V, L81M, R98K, F102Y, S119A
VL: B1 VL with S20T, Q37R, K42T
notes: murine IgG
With B5, the binding result was “binds”.

B6: SCT-Fa125 (antibody, V domains shown)
VH: QVQLQQPGAELVMPGASVKLSCKASGYTFTSYWMHWVKQRPGQGLEWIGEIDPSDNYTNYNQKFKGKATLTVDGSSSTAYMQLSSLTSEDSAVYYCARNYGSNYVGYFDYWGQGTTLTVSS
VL: DIQMTQTTSSLSASLGDRVTISCRASQGISNYLNWYQQKPDGTVKLLIYYTSRFHSGVPSRFSGSGSGTDYSLTISNLEQEDIATYFCQQGNSLPWTFGGGTKLEIK
notes: murine IgG
B6: the binding result is listed as “binds”.

B7: SCT-Fa133 (antibody, V domains shown)
VH: B6 VH with P14S, S31T, K38R, N56S, T58S, Y60N, K63N, G66A, G74K, S84G
VL: B6 VL with T7S, G28D, S30T, Y50H, F54L, S56A, E79D, S93A
notes: murine IgG
Take B7: the binding result is reported as “binds”.

B8: SCT-Fa144 (antibody, V domains shown)
VH: B6 VH with M13T, S31T, N56S, T58R, G74K, T116A
VL: B6 VL with G28D, S30T, K39R, F54L, E79A, E81G, G91A, N92S, S93T, E105D
notes: murine IgG
As for B8, the binding result was “binds”.

B9: SCT-Fa132 (antibody, V domains shown)
VH: B6 VH with G15R, N56G, Q62H, G74K
VL: B6 VL with G28D, P40R, S93T
notes: murine IgG
B9: the binding result was “binds”.

B10: SCT-Fa128 (antibody, V domains shown)
VH: B6 VH with S31T, N56S, T58S, G74K
VL: B6 VL with M4L, S22N, G28D, F54L, H55L, R61S, N77S, N92K, S93A
notes: murine IgG
In the case of B10, the binding result was “binds”.

B11: SCT-Fa126 (antibody, V domains shown)
VH: B6 VH with N56S, T58S, G74K, S84I
VL: B6 VL with G28D, F54L, H55L, S93T, K103N
notes: murine IgG
Regarding B11, the binding result is reported as “binds”.

B12: SCT-Fa130 (antibody, V domains shown)
VH: B6 VH with K19R, S31T, K38R, N56S, K63N, G74K, M81L, Y110H
VL: B6 VL with G28D, F54L, R61S, G91A, S93A
notes: murine IgG
Turning to B12, the binding result was “binds”.

B13: SCT-Fa131 (antibody, V domains shown)
VH: B6 VH with K19R, A24T, T30S, S31T, N56S, K63N, G74K, Q82K
VL: B6 VL with T8A, G28D, S30N, F54L, R61S, S93A, G99S
notes: murine IgG
Turning to B13, the binding result was “binds”.

B14: SCT-Fa190 (antibody, V domains shown)
VH: B6 VH with Q5R, T30N, S31T, N56S, K63N, G74K, M81L
VL: B6 VL with G28D, F54L, H55P, R61S, G91A, N92K, S93A
notes: murine IgG
Turning to B14, the binding result was “binds”.

B15: SCT-Fa129 (antibody, V domains shown)
VH: B6 VH with S31T, N56S, G74K
VL: B6 VL with M4L, S22N, G28D, F54L, H55L, R61S, N77S, N92K, S93A
notes: murine IgG
As for B15, the binding result was “binds”.

B16: SCT-Fa136 (antibody, V domains shown)
VH: QVQLQQPGAELVRPGTSVKLSCKASGYTFINYWMHWVKQRPGQGLEWIGVIDPSHTSTSYNQKFKGKATLTVDTSSTTTSMQLTSLTSEDSAVYYCARNDYDGGYFDYWGQGTTLTVSS
VL: DVVMTQIPLSLPVSLGDQASISCRSSQSLVHSNGNTYLHWYLQKPGQSPKLLIYTVSNRFSGVPDRFSGSGSGTDFTLKISRLEAEDLGVYFCSQTTHVPWTFGGGTKLEIK
notes: murine IgG
For B16, the binding result is reported as “binds”.

B17: SCT-Fa143 (antibody, V domains shown)
VH: QVQLQQPGAELVRSGTSVKLSCKASGYTFISYWMHWVKQRPGQGLEWIGVIDPSDTNTNYNQKFRGKATLTVDTSSSTAYMQLSSLTSEDSAVYFCARNDYDGGYFDYWGQGTTLTVSS
VL: B16 VL with I7T, V13G, P45S, T55K, L83V, V90L
notes: murine IgG
Regarding B17, the binding result is recorded as “binds”.

B18: SCT-Fa142 (antibody, V domains shown)
VH: QVQLQQPGAELVRPGTSVRLSCKASGYSFTIYWMHWVKQRPGQGLEWIGVIDPSTSNTDYNQKFKGKATLTVDTSSSTAYMQLRSLSSEDSAVYYCARNDYDGGYFDYWGQGTTLTVSS
VL: B16 VL with I7T, S28R, P45T, T55K, L83V, T96S
notes: murine IgG
Consider B18, for which the binding result is “binds”.

B19: SCT-Fa151 (antibody, V domains shown)
VH: B17 VH with A9S, S14P, I30T, T56N, N59H, R65T, Q82H, Y94F, F95Y, Y108F
VL: B16 VL with I7T, Q18H, N35H, Y54D, T55K, L83V, T96S
notes: murine IgG
Consider B19, for which the binding result is on record as “binds”.

B20: SCT-Fa141 (antibody, V domains shown)
VH: B17 VH with S14P, K19N, I30T, I48L, T56S, R65K, F95Y, A97S
VL: B16 VL with I7T, L83V, V90I, T96S
notes: murine IgG
As to B20, the binding result was “binds”.

B21: SCT-Fa138 (antibody, V domains shown)
VH: B18 VH with R19K, S28T, I31R, K38R, T55S, N57S, R84S, S87T
VL: B16 VL with I7S, N35I, K50N, T55K, L83V
notes: murine IgG
On to B21, for which the binding result is “binds”.

B22: SCT-Fa134 (antibody, V domains shown)
VH: QVQLQQPGAELVRPGSSVKLSCKASGYNFTNYWIDWVKQRPGQGLAWIGDIYPSDNKTHYNQNFKGKATLTVDKSSNTAYMQLSSLTSEDSAVYYCAASMDYWGQGTSVTVSS
VL: DIVMTQSPSSLTVTAGEKVTMSCKSSQSLLNSKNQKNFLTWYQQKPGQPPKLLIYWASTRESGVPDRFTGSASGTDFTLTISSVQAEDLAVYYCQNDYSYPYTFGGGTKLEIK
notes: murine IgG
Consider B22, for which the binding result is given as “binds”.

B23: SCT-Fa135 (antibody, V domains shown)
VH: B22 VH with N31S, A46E, N56S, S85N, A98T
VL: B22 VL with S99D
notes: murine IgG
Turning to B23, the binding result is “binds”.

B24: SCT-Fa158 (antibody, V domains shown)
VH: QVQLQQPGTELVKPGASVKVSCKASGYTFISYWMHWVKQRPGQGLEWIGNIDPNSGTTNYNEKFKTKATLTVDKSSSTAYMQLSSLTSEDSAVYYCARWGWDGFAYWGQGTLVTVSA
VL: DAVMTQTPLSLPVSLGDQASISCRSSQSLENSNGNTYLNWYLQKPGQSPQLLIYRVSTRFSGVLDRFSGSGSGTDFTLKISRVEAEDLGVYFCLQVTHVPYTFGGGTKLEIK
notes: murine IgG
For the molecule B24, the binding result is “binds”.

B25: SCT-Fa165 (antibody, V domains shown)
VH: B24 VH with I30V, M34I, S55N, T57G, T58S, K63R, K65R, T87A
VL: B24 VL with V96L
notes: murine IgG
In the case of B25, the binding result is reported as “binds”.

B26: SCT-Fa155 (antibody, V domains shown)
VH: B24 VH with T57G, T66S, T69I, Y95F
VL: B24 VL with A2V, V56I
notes: murine IgG
As to B26, the binding result was “binds”.

B27: SCT-Fa153 (antibody, V domains shown)
VH: B24 VH with E46D, S55N, T57G, T66S
VL: B24 VL with N33Y
notes: murine IgG
Turning to B27, the binding result is on record as “binds”.

B28: SCT-Fa164 (antibody, V domains shown)
VH: B24 VH with D52N, S55N, T57G, T66S
VL: B24 VL
notes: murine IgG
Consider B28, for which the binding result is on record as “binds”.

B29: SCT-Fa157 (antibody, V domains shown)
VH: B24 VH with T57I, T66S, T69I
VL: B24 VL with A2V, V56I
notes: murine IgG
B29: the binding result is “binds”.

B30: SCT-Fa154 (antibody, V domains shown)
VH: B24 VH with T57G, N59K, T66S, T69I, A97T
VL: B24 VL with A19V, V56I
notes: murine IgG
With B30, the binding result is “binds”.

B31: SCT-Fa156 (antibody, V domains shown)
VH: B24 VH with T57G, T66S, T69I, A97T
VL: B24 VL with A19V, V56I
notes: murine IgG
As for B31, the binding result was “binds”.

B32: SCT-Fa159 (antibody, V domains shown)
VH: B24 VH with S55Y, T57G, T58P
VL: B24 VL with T58N, V96I
notes: murine IgG
In the case of B32, the binding result was “binds”.

B33: SCT-Fa152 (antibody, V domains shown)
VH: B24 VH with W33C, E46D, S55N, T57G, T58P
VL: B24 VL with T58N
notes: murine IgG
As for B33, the binding result is “binds”.

B34: SCT-Fa166 (antibody, V domains shown)
VH: B24 VH with I30V, S55N, T57G, T58S, K63R, K65R, T87A
VL: B24 VL with V96L
notes: murine IgG
As to B34, the binding result is recorded as “binds”.

B35: SCT-Fa160 (antibody, V domains shown)
VH: B24 VH with S55Y, T57G, T58P
VL: B24 VL with T58N, V96L
notes: murine IgG
Take B35: the binding result is recorded as “binds”.

B36: SCT-Fa168 (antibody, V domains shown)
VH: B24 VH with A24T
VL: B24 VL
notes: murine IgG
In the case of B36, the binding result is given as “binds”.
